Source: the nanobody polyreactivity screen of Harvey et al. (2022)

Experiment: yeast display, Sf9 membrane polyspecificity reagent, FACS + sequencing; frameworks hold sequencing errors
Method in brief: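 Nanobodies from a synthetic yeast display library (Saccharomyces cerevisiae BJ5465), induced 36–48 hours with galactose, were stained 1 hour at 4 °C with 10% biotinylated, detergent-solubilized Sf9 membrane reagent, enriched on streptavidin microbeads, then FACS-sorted. Anti-HA (expression) and streptavidin (reagent binding) fluorescence set low and high (top ~1%) gates. Polyreactivity labels come from the gate of origin. Genes were colony-PCR amplified, MiSeq 2 × 250 sequenced and filtered by CDR length.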

Row | Sequence | polyreactivity (PSR sort gate)
1 | QVQLVESGGGLVQAGVSLRLSCAASGRTFYRYVMGWYRQAPGKERELVAAITPGGSTYADSVKGRFTISRDNAKNTVYLQMNSLKPEDTAVYFCNKRKASSSGYNYWGQGTQVTVSS | low polyreactivity
2 | QVQLVESGGGLVQAGVSLRLSCAASGRTSAYSAMGWYRQAPGKERQLVAGITRGGRTNYADSVKGRFTISRDNAKNTVYLQMHSLKPEDTAVYYCAAKYGYYWNSRTSGYWGQGTQVTVSS | high polyreactivity
3 | QVQLVESGGGLVQAGVSLRLSCAASGSFFGYYTMGWYRQAPGTERELVAAISASGGSTYYADSVKGRFTISRDNANNTVYLQLNSLKPEDTAVYYCAATSAANFPRGYYYWGQGTQVTVSS | high polyreactivity
4 | QVQLVESGGGLVQAGVSLRLSCAASGSIFFYNARGWYRQAPRKERELVAAITTRGGSTYYADSVKGRFTISRDNAQNYVYLQMNSLKPEDTAVSYCARSSRGKLDYWGQGTQVTVSS | low polyreactivity
5 | QVQLVESGGGLVQAGVSLRLSCAASGSIFGYYAMGWYRQAPGKERELVAAINYSGVSTYYADSVKGRFTISRDNAKNTVYLQMNSLKPDDTAVYYCAAKGRKSVYSRNSWGQGTQVTVSS | high polyreactivity
6 | QVQLVESGGGLVQAGVSLRLSCAASGSIFQTYDMGWYRQAPGKERELVAAITGSGDSTYYADSVKGRFTISRDNAKNTVYLQMNSLKPEDTAVYYCNADGPSTPWVEYGYWGQGTQVTVSS | low polyreactivity
7 | QVQLVESGGGLVQAGVSLRLSCAASGSIFVYNAMGWYRQAPGKERELVAAISSSGTRTYYADSVKARFTISRDNAKNTVYLQMNSLKPEDTAVYYCAAYYVPWGTLYHLDYWGQGTQVTVSS | high polyreactivity
8 | QVQLVESGGGLVQAGVSLRLSCAASGSTFSNYAMGWYRQAPGKERELVAGIDWSGGSTYYADSVKGRFTISRDNEKITVYLQMNSLKPEDTAVYYCAKRVWYHGRKLRGYYWGQGTQVTVSS | low polyreactivity
9 | QVQLVESGGGLVQAGVSLRLSCAASGSTFYYYAMGWYRQAPGKERELVATISSGSSTNYADSVKGRFTISRDNAKNTVYLQMNSLKPEDTAVYYCAADRWYITLSIDATISYDYWGQGTQVTVSS | low polyreactivity
10 | QVQLVESGGGLVQAGVSLRLSCAASGSTLISNTMGWNRQAPWKERELVAAITRTGGRTYYADSVKGRFTSSRDTAKNTVDLPMNSLKPEDTAVYYCARYGGYLSLKYDYWGQGTQVTVAS | high polyreactivity
11 | QVQLVESGGGLVQAGVSLRLSCAASGVNAMGWYRQAPGKEREFVAAITSIGGSTYYADSVKGRFTISRDNAKNTVYLQMNSLKPEDTAVYYCNTDRGPVKVSPLYESWGQGTQVTVSS | low polyreactivity
12 | QVQLVESGGGLVQAGVSLRLSCHASGSIFYYNTMGWYRQSPGKERELVATISSDGGTNYADSVKGRFTISRDNAKYTVYLQMNSLKPEDTAVYYCAKDGSNRLALPAWDYNYWGQGTQVTVSS | low polyreactivity
13 | QVQLVESGGGLVQARGSLLLSSAASGLIFQTYTMGWYRQAPGKERELVAAITSSGGRTYYADSVKGRFTISRDNAKNSVFLQKNSLKPEDTAVYYCAARRPPSAGMGYWGQGTQVTVSS | high polyreactivity
14 | QVQLVESGGGLVQARGSLRLSCAASGFIFASNAMGWYRQAPGKERELVAAITKSGGRTYYADSVKARFTISRDTAKNTVYLQMNSLKPVDTAVYYCAAKVRVVHRPYDHWGQGTQVTVSS | high polyreactivity
15 | QVQLVESGGGLVQARGSLRLSCAASGFTFGYNAMGWYRKAPGTERELVAVITQSGGRTYYADSVKGRFTISRDNANNSVYLQMNSLKPEDTAVYYCAARYRLAPYYYWGQGTQVTVSS | high polyreactivity
16 | QVQLVESGGGLVQARGSLRLSCAASGLTFRIYAMGWYRQAPGKERELVAAITRGGSTYADSVKGRFTISRDNAKNTVYLQMNSLKPEDTAVYYCAARVRSTSQVSASPVWYYYWGLGTQVTVSS | high polyreactivity
17 | QVQLVESGGGLVQARGSLRLSCAASGNTFPSYAMGWYRQAHGKERELVAAITSGGRTYYADSVNGRFTISRDNAKNTVYLQLNSLKPEDTAVYYCAAEWVVRYPWYRYYYWGQGTEVTVSS | high polyreactivity
18 | QVQLVESGGGLVQARGSLRLSCAASGRIFKYNAMGWYRQAPGKESELVAAISGGGSTNYADSVKGRFTISRDNAKNTVYLLMNSLKPEDTAVYYCAKGYRRVYGPFYYWGQGTQVTVSS | low polyreactivity
19 | QVQLVESGGGLVQARGSLRLSCAASGRIFPGYAMGWYRQAPGKERELVAGISNDASTNYADSVKGRFTISRDNAKNTVYLQMNSLKPEDTAVYYCAAEISSLSFPRYDYWGQGTQVTVSS | low polyreactivity
20 | QVQLVESGGGLVQARGSLRLSCAASGRIFVINAMGWYRQAPGKERELVAAISQSGGSTYYADSVKGRFTISRDNAKNTVYLQMNSLKPEDTAVYYCNALSNVPYDYWGQGTLVTVSS | low polyreactivity
21 | QVQLVESGGGLVQARGSLRLSCAASGRIFYFYAMGWYRQAPGKERELVAAITESTSSTYYADSVKGRFTISRDNAKNTVYLQMNSLKPEDTAVYYCAARVSQWLPYGGSSRYYYWGQGTQVTVSS | high polyreactivity
22 | QVQLVESGGGLVQARGSLRLSCAASGRTFGGYARGWYRQAPGKERELVATISKRAGSTYYADSVKGRFTISRDHAKNTVYLQMNSLKPEDTAVYYCAKVKSARYQEYEYWGQGTQVTVSS | high polyreactivity

Row | Sequence | polyreactivity (PSR sort gate)
23 | QVQLVESGGGLVQARGSLRLSCAASGSIFDDYAMGWYRQAPGKERELVAAISSSGTSTYYADSVKGRFTISRDNAKNTVYLQLNSLKPEDTAVYYCAARSAILKSGYLMEYWGEGTQVTVSS | low polyreactivity
24 | QVQLVESGGGLVQARGSLRLSCAASGSIFQYNAMGWYRQAPGKERELVAAINGGGSTYYADSVKGRFTISRNNAKNTVYLQLTSLNPEDTAVYYCNADAMDEDWRGYWGQGTQVTVSS | low polyreactivity
25 | QVQLVESGGGLVQARGSLRLSCAASGSIFYGNAMGWYRQAHGKERELVAAISQSGGSTYYADSVKGRFTISRDNAKNTVYLQMNSLKPEDTAVYYCAAYTPYATWRYDYWGQGTQVTVSS | low polyreactivity
26 | QVQLVESGGGLVQARGSLRLSCAASGSTFGGYAMGWYRKAPGKERELVASISAIGGSTYYADSVKGRFTISRDNAKNTFYLQMNSMKPEDTAVYYCAAQRGGGPNDYWGQGTQVTVSS | high polyreactivity
27 | QVQLVESGGGLVQARGSLRLSCAASGSTFGWYAMGWYREAPGKERELVAAIYRGGGSTYYADSVKVRFTISRDNAMNTVYLQMNSLKPEDTAVYYCAAYSYYQGGMDYWGEGTQVTVSS | high polyreactivity
28 | QVQLVESGGGLVQARGSLRLSCAASGSTFVGYAMGWYRQAPGKEREFVAAITRGGSTNYADSVKGRFTISRDNAKNTVYLQMNSLKPEDTAVYYCAARDRREGFNFDYWGQGTQVTVSS | low polyreactivity
29 | QVQLVESGGGLVQARGSLRLSCAASGSTLRRYAMGWYRQAPGKERELVAAISGSGDSTYYADSVKGRFTISRDNAKNTVYLQMNSLKPEDTAVYYCNAVYAFNGYDYWGQGSQVTVSS | low polyreactivity
30 | QVQLVESGGGLVQARGSLRLSCAASGYIFAVYAMGWYRQANGKERELVAAITWSGGRTYYADSVKGRFTISLDNAKNTVYLQMNSLKPEDTAVYYCNARARSRKFYYWGQGTQVTVSS | high polyreactivity
31 | QVQLVESGGGLVQARGSLRLSCAASVIIFRLYGRGWYRQAPGKEREFVATITWRGGRTNYADSVKGRFTISRDNAKNTVYLQMNSLKPEDTAVYYCAKVVRYARSNEYDSWGQGTQVTVSS | low polyreactivity
32 | QVQLVESGGGLVQARGSLRLSCAAYGLTLRGYAMGWYRQAPGKERELVAAISGSGTSTYYADSVKWRFTISRDNAKNTVYLQMNSLKPEDTAVYYCAAVKVRKGLEMGYWGQGTQVTVSS | high polyreactivity
33 | QVQLVESGGGLVQARGSLRLSCAGSGRTFGYYAMGWYRHAPGKERELVAAIDQSDTYYADSVKGRFTISRDNAKITVSLQMNSLKPEDTAVYYCAADGDPSIEDEYWGQGTQVTVSS | high polyreactivity
34 | QVQLVESGGGLVQARGSLRLSSAAYGRTLYSYAMGWYRQAPGKERELVATIRRSGGSTNYADSVKGRFTISRDNAKNTVYLQMNSLKPEDTAVYYCAAVSFKPEYYYWGQGTQVTVSS | high polyreactivity
35 | QVQLVESGGGLVQARGSLRLSSSASGSIFKYYAMGRYRHAPGKESELGAAISYSGGTTYYADSVKGRFTISRDNAKNTVYLQMNSLKPEDTAVYDCNARYPNFVVRGYAPYDYWGQGSQVTVSS | low polyreactivity
36 | QVQLVESGGGLVQARGSLRLTCAASGNIFVSYAMGWYRPAPGKERELVAAISKRGGSTYYADSVKGRFTISRDNAKNTVDLQMISLKPEDTAVYYCAALGHVDDSIYDYWGQGTQVTVSS | high polyreactivity
37 | QVQLVESGGGLVQARGSLRLTWAASGRTFGINAMGWYRQAPGKERELVAVISGSGGNTYYADSVKGRFTISRDNAKNTVYLQMNSLKPEDTAVYYFATSYEKFRYDHGYWGQGTQVTVSS | low polyreactivity
38 | QVQLVESGGGLVQARGSRRLSCAASGLTFVPTAMGWYRQAPGKEREFVAAISNNGGRKYYADSVKGRFTISRDNAKNRVYLQINSLKPDDTAVYYCAKYLSPGERHSYDYWGQGTQVTVSS | high polyreactivity
39 | QVQLVESGGGLVQARVSLRLSCAASGRIYGYTMGWYRQAPGKERELVAAITRNGGSTYYADSVKARFTISRDNSKNTVSLQMNSLKPEDNAVYYCAARNAFGTYYAWGQGTQVTVAS | high polyreactivity
40 | QVQLVESGGGLVQARVSLRLSCAASGSIFNGYAMRWYRQAPGKESEFVAAISASGGGTYYADSVKGRFTISRDNAKNTVYLQMNSLKPEDTAVYYCNARYHPYYWGYRYDYWGQGTQVTVSS | low polyreactivity
41 | QVQLVESGGGLVQAVGILRLSCASYGRTFVANAMGWYIQAPGKERELVAGITCGDSTYYADSVKWRFTISRDNAKNTVYLQMNRLKPEDTAVYYCSAPYNFWNFFDLIYVWDGYDYWGQGTQVTVSS | low polyreactivity
42 | QVQLVESGGGLVQAVGRLRLSCAASGFTFPWYAMGWYRHAPGKERELVAAISTSGDSTYYADSVKGRFTISRDNAKNTVYLQMNSLKPADTAVYYCAARVVRGRYGYWGQGTQVTVSS | high polyreactivity
43 | QVQLVESGGGLVQAVGRLRLSCAASGRILPLYAMGWYRQAPGKEREMVADITGSDGSTYYADSVKGRFSISRDNAKNTVYLQMNSLKPEDTAVYYCATDAIGRTPSDPWDYYYWGQGTQVTVSS | low polyreactivity
